Experimental data reported in article doi:10.1101/2020.11.24.393629 (bioRxiv, 2020).

Columns and labels:
[1] = target: T1, Recombinant RBD protein of SARS-CoV-2 with His tag (SARS-CoV-2, UniProt P0DTC2); experiment: flow cytometry on cells
[2] = target: SARS-CoV-2 S on 293T cells expressing SARS-CoV-2 S (SARS-CoV-2-S cells) (SARS-CoV-2, UniProt P0DTC2); experiment: flow cytometry on cells
[3] = target: SARS-CoV RBD (SARS-CoV, GenBank NC_004718.3, UniProt P59594); experiment: BLI
[4] = target: T1, Recombinant RBD protein of SARS-CoV-2 …; experiment: ELISA

B1: HB27, humanized anti-SARS-CoV-2 monoclonal antibody (IgG) (antibody, V domains shown)
VH: VKLVESGGGLVKPGGSLRLSCAASGFTFTNYGMSWVRQAPGKRLEWVAEISSGGSYTYYPDTVTGRFTISRDNAKNTLYLQMNSLRAEDTAVYYCARFRYGGGGTVDYWGQGTLVTVSS
VL: IVLTQSPTLSLSPGERATLSCRASESVDNYGISFMNWFQQKPGQAPRLLIYAASNQGSGIPSRFSGSGSGTDFSLTISSLEPEDFAVYFCQQSKEVPRIFGQGTKVEIL
B1 was tested, and the EC50 [1] was 5 to 50 nM, the EC50 [2] was 5 to 50 nM and the binding result [3] was “no binding”. For the same binder, the EC50 [4] was 0.5 nM.
